# The nanobody polyreactivity screen of Harvey et al. (2022)
# Test: yeast display, Sf9 membrane polyspecificity reagent, FACS + sequencing; frameworks hold sequencing errors
# In short: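 After 36–48 hours of galactose induction, yeast (Saccharomyces cerevisiae BJ5465) displaying a synthetic nanobody library were stained at 4 °C for 1 hour with 10% biotinylated, detergent-solubilized Sf9 membrane reagent. Streptavidin microbeads enriched the stained cells before FACS sorting into low and high (top ~1%) gates on anti-HA and streptavidin fluorescence. Each clone's polyreactivity label reflects its gate of origin.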
row,Sequence,polyreactivity (PSR sort gate)
1,QVQLVESGGGLVQAGGSLRLSCAASGIIFGYYAMGWYRQAPAKERELVAAISQSGGDTYYADSVKGRYTISRDLAKNTVYLQMNSVKPEDTAVYYCAASVWYYPMDYWGQGTHVTVSS,low polyreactivity
2,QVQLLESGGGLVQAGGSLRLSCAASGYNFGNYAMGWYRQAPGKERELVAAITSRGGRTYYADSVKGRFTISRDNAKNSFYLQMNSLIPVDTGVYYCYRAVTTKDGYWGQCTQVTVSS,high polyreactivity
3,QVQLVESGGGLVQAGGSLRLSCAASGLTFSRYAMGWYRQAPGKERELVAAITSIGGSTYYADSVKGRFTISRDNAKNTVYLQMNSLKPEDTAVYYCRAFFRRDYWGQGTQVTVSS,high polyreactivity
4,QVQLVESGGGLVQAGGSLRLSSAASGSIFITYAMGWYRQAPGKERELVAAIRDSGDRTYYADSVKGRFTISRDNAKNTVYLQMNSLKPEDTAVYYCNARWQEPLKYDYWGQGTQVTVSS,low polyreactivity
5,QVQLVESGGGLVQAGGSLRLSCAASGSTFSINAMGWYRQAPGKERELVAAITWRGTRTYYADSVKGRFTISRDNAKNTVYLQMNSLTPEDTAVYYCAATGSGQASYYYWGQGTQVTVSS,high polyreactivity
6,QVQLVESGGGLVQAGGSLRLSCAASGFIFKSYAMGWYRQAPGKERELVAAISGRGGSTYYADSVKGRFTISRDNAKNTVYLQMNSLKPEDTAVYYCNVVPSTYYQYDYWGQGTQVTVSS,high polyreactivity
7,QVQLVESGGGLVQAGGSLRLSCAASGRTFSYYTMGWYRQAPGKERELVARISNRGTNTYYADSVKGRFTISRDNAKNTVYLQMNSLKPEDTAVYYCNAAFSVRHLYRYDYWGQGTQVTVSL,low polyreactivity
8,QVQLVESGGGLVQAGGSLRLSCAASGGIFGYNMGWNRQAPGKEWELVAAITSGGITNYADSVKGRFTISRDNAKNTVYLQMNSLKPQDTAVNYCNRSPGGGKETVLGGDYWGQGTQVTVSS,low polyreactivity
9,QVQIVESGGGLVQAGGSLRLSCAASGIIFGRNTMGWYRQAPGKERELVAGISSNGGSTYYADSVKGRFTISRDNAKNTVYLQMNSLKPEDTAVYYCAAYYNIPDRRRVGYDYWGQGTQVTVSS,high polyreactivity
10,QVQLVESGGGLVQAGGSLRLSCAASGTSGYYAMGWYRQAPGKERELVAGISIGGSTNYADSVKGRFTISRDNAKNTVYLQMNSLKPEDTAVYYCAVDGYVAFSPDRNNYWGQGTQVTLSS,low polyreactivity
11,QVQLVESGGGLVQAGGSLRLSCAASGFTFARNAMGWYRQAPGKERELVAVISRGGSTNYADSVKGRFTISRDNAKNTVSLQLHSLKPEDTAVYYCATRSSRRSYYLGEFNYWGQGTQVTVSS,high polyreactivity
12,QVQLVESGGGLVQAGCSLRLSCAASGRIFRLNAMGWYRQAPGKERELVAAISSSGGSTYYADSVKGRFTISRDNAKNTVYLQMNSLKPEDTAVSYCAKYPVGGYDYWGQGPQVTVSS,low polyreactivity
13,QVQLVESGGGLVQAGGSLRLSCAASGFTVAYYAMGWYRQAPGKERELVAAITGSGGRTYYADSVKGRFTISRDNAKNTVYLQMTSLKPEDTAVYYCAALTGPYKAQVHGGHTPLDYWGHGTQVTVSS,low polyreactivity
14,QVQLVESGGGLVQAGRSLRLSCAASGLTFLYYAMGWYRHAPAKEMEFVAANSNRDGSTYYADSVKGRFTISRDNAKNTVYLQMNSLKPEDTAGYYCYADGYVDYCFLKYRFEFDYWGQGTQVTVSS,low polyreactivity
15,QVQLVESGGGLVQAGGSLRLSCAASGRIFGLYLGWYRQAPGKERELVATITWRGGSTYYADSVKGRFTISRDNAKNTVYLHLNSVKPEDTEVYYCAARGYRGRMGYWGQGTQVTVSS,low polyreactivity
16,QVQLVESGGGLVQAGGSLRLSCAASGRIFRVYAMGWYRQAPGKERELVAAISSGGSTNYADSVKGRFTISRDNANNTVYLQMNSLKPEDTAVYYCAATVRGVGYRYYYWGQGTQVTVSS,high polyreactivity
17,QVQLVESGGGLVQAGGSLRLSCAASGFTIYSYAKAWYRQAPGKERELVAAITRGSSTNYADSVKGRFTISRDNAKNTVYLQMNSLKPEDTAVYYCNRGGWRQYDSWGQGTQVTVSS,high polyreactivity
18,QVQLVESGGGLVQAGGSLRVSCAASGSTFGTYGMGWYRPAPGKERELVADITSGGSTYYADSVKGRFTISRDNAKNTVYLQMNSLTPEDTAVYYCAASWFVWSTAVPYDYWGQGTQVTVSS,low polyreactivity
19,QVQLVESGGGLVHAGGSLRLICASSGFIFWAYAMGWYRQAPGKERELVAAISNNGVSTYYADSVKGRFTISRDIAKNTVYLQMNSLIPEDTAVYYCGATGVRSKRLASQWKLDYWGQGTQVTVST,high polyreactivity
20,QVQLVESGGGLVQAGGSLRLSCAASGSIFYSNAMGWYRQAPGNERELVAAITYRGGRTYYADSVKGRFTISRDNAKNTVYLQKNSLKPEDTAVDYCAKVVRAQALDSIYNGRYDYWGEGTQVTVSS,low polyreactivity
21,QVQLVESGGGLVQAGGSLRLSCAASGSIFLENTMGWYRQAPGKERELVAAITSSGDSTYADSVKGRFTISRDNAKNTVYLQMNSLKPEDTAVYYCNKDYDDIAPTRAVLDRYDYWGQGTQVTVSS,low polyreactivity
22,QVQLVESGGGLVQAGGSLRLSCAASGIIFVYYVMGWYRQAPGKERELVAAISWDGGSTYYADSVKGRFTISRDNAKNTVYLQMNSLKPEDTAVYYCAARYKGNPDRYGYWGLGTQVTVSS,high polyreactivity

row,Sequence,polyreactivity (PSR sort gate)
1,QVQLVESGGGLVQAGGSLRLSCAASGSIFVGYAMGRYRQAPGKERELVAAISSRGGSTYYADSVKGRFTISRDNAKNTVYLQMNSLKPEDTGVYYCAAEYRAWWYEYDYWGQGTQVTVSS,high polyreactivity
2,QVQLVESGGGLVQAGGSLRLSCAASGFIFDINAMGWYRQAPGTERELVADIRGGGSTYYADSVKGRFTISRDNAKNTVYVQMNSLKPEDTAVYYCNALDSYRHRPFDYWGQGTQVTVSS,low polyreactivity
3,QVQLVESGGRLVQAGGSLRLSCAASGFTFDVYAMGWYRQAPGKERELVASITLRDGSTYYADSVKGRFTISRDNAKNTVYLQMNSLKPEDTAVYYCAADDSRATYEFEYWGQGTQVTVSS,low polyreactivity
4,QVQLVESGGGIVQAGGSLRLSCAASGRIFYRYDMGWYSQARGKERELVAAINDGGSTYYADSVKGRFTISRDNAKNTVYLQMNSLKPEDTAVYYCKVVNEHQSDFVVPFDYNHWGQGTQVTVSS,low polyreactivity
5,QVQLVESGGGLVQAGGSLRLSCAASGSILTAYAMGWYRQAPGKERELVAASNFSGDNTYYADSEKGRFTISRDNAKNTVYLQMNSLKPEDTAVYYCNADGRYAYVWYDYWGQGTQVTVSS,low polyreactivity
6,QVQLVESGGGLVQAGGSLRLSCAASGRIFYYNTMGWYRQAPGKERELVAAISSTASTTYADSVKGRFTISRDNAKNTDYIQMNSLKPEDTAVYYCAADHRYHWANPRGYYYWGQGTQVTVSS,high polyreactivity
7,QVQLVESGGGLVQAGGSLRLSCAASGRIIGRYAMGWYRQAPGKEREFVAAISGSGGSTYYADSVKGRFTISRDNAKNTVYLQMNSLKPEDTAVYYCNALSVPDYDYWGQGTQVTVSS,high polyreactivity
8,QVQLVESGGGLVQAGGSLRISCAASGRTFYQYDMGWYRQAPGKERELVAAIDWSGGSTYYADSVKGRFTISRDNAKNTVYLQMNSLKPEDTAVYYCNADAYPHPVVGYDYWGQGTQVTVSS,low polyreactivity
9,QVQLVESGGGLVQAGGSLRLSCAASGRIFHSNTKGWYRQAPGKERELVARISSVGSTNYADSVKGRFTISRDNAKNTVYLQMNSQKPEDTAVYYCAAQRYYTQSSYYLALYDFWGQGTQVTVSS,low polyreactivity
10,QVQLVESGGGLVQAGGSLRLSCAASGIIFPRYAMGWYRQAPGKERELVAAITRRGGRTYYADSVKGRFTISRDNAKNTVYLQMNSLKPEDTAVYYCNADFISPRPPKATDEDYWGQGTQVTVSS,high polyreactivity
11,QVQLVESGGGLVQAGGSLRLSCAASGSIIYPYVMGWYRQAPGKERELVAAISASGGSTYYADSMKGRFTISRDNAKNTVYLQMNSLKPEDTGVYYCAKYYRFRDDYDYWGQGTQVTVSS,high polyreactivity
12,QVQLVESGGCLVQAGGSLRLSCAASGFTFYWYTMGWYRQAPGKERELVAAISRSGGDTDYADSVKGRFTISRDTAKNTVYLQMDSLQPEDTAVYYCNAGYFITHNYKYDYGGQGTQVTVSS,low polyreactivity
13,QVQLVESGGGLVQAGGSLLLSCAASGSTLFLYAMGWYRQAPGKERELVAGITYSGSTYADSVKGRFTISRDNAKNTVYFQMNSLKPEDTAVYYCAKDGYWNEEYSVGMDYWGQGTQVTVSS,low polyreactivity
14,QVQLVEAGGGLVQAGGSLRLSCAASGYIFFFYAMGWYRQAPGKERELVASITYRGGSTYYADSVKGRFTISRDNAKNTVYLQMNSLIPEDTAVYYCNVDGGGPLGPQGFPFDYWGQGTQVTVSS,low polyreactivity
15,QVQLVESGGGLDQAGGSLRLSCAASGSIFDSNAMGWYRQAPGKERELVAAISLSGGSTYYADSVKGRFTISRDNAKNTVYLQMNSLKPEDTAVYYCAKDGWYEYYWGQGTQVTVSS,low polyreactivity
16,QVQLVESGGGLVQAGGSLRLSCAASGSIFRFYAMGWYIQAPGKERELVAGITWSGASTYYAVSVKGRFTISRDNAKNTVYLQMNSLKPEDTAVYYCAAKSLIVRYDSWGQGTQVTVSS,high polyreactivity
17,QVQLVESGGALVQAGGSLRLSCAASGIILLRYAMGWYRQAPGKERELVAAISYSGGSTYYADSVKGRFTISRDNAKNTVYLQMNSLKPEDTAVYYCNTVGPRRYSYDYWGQGTQVTVSS,high polyreactivity
18,QVQLVESGGGLVQAGGSLRLSCAASGNIFPYYTMGWYRQAPGKERELVAAISSSGSTYYADSVKGRFTISRDNAKNTVYLQMNSLKPEDTAVYYCAARLYPYGWYDYWGQGTQVTVSS,high polyreactivity
19,QVQLVESGGGLVQAGGSLRLSCAASGRIFHWYTMGWYRQAPGKEMELVAAISGSGGSTHYADSVKGRLTISRDNAKNTVYLQMNSLKPEDTAVYYCAAYIPVRYGTSDRGYWGQGTQVTVSS,low polyreactivity
20,QVQLVESGGGLVQAGGSLRIICAASGRTFATYAMGWYRQAPGKERELVAVISRSGGRTYYADSVKGRFTISRDNAKNTVYLQMNSLKPEDTAVYYCAASYGPSTWTSSYYYWGQGTQVTVSS,high polyreactivity
21,QVQLVESGGGLVQAGGSLRLSCSASGSIFFKYAMGWYRQAPGKERELVASITSRGGTTYYADSVKGRFTISRDNAKNTVYLQMNSLKPEDTAVYYCAALRRSSFGYWGQGTQVTVSS,high polyreactivity
